# Test results taken from the nanobody polyreactivity screen of Harvey et al. (2022).
# Test: yeast display, Sf9 membrane polyspecificity reagent, FACS + sequencing; frameworks hold sequencing errors
# Method in brief: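 Synthetic nanobody libraries on Saccharomyces cerevisiae BJ5465 were galactose-induced for 36–48 hours, stained 1 hour at 4 °C with 10% biotinylated, detergent-solubilized Sf9 membrane reagent and enriched on streptavidin microbeads. FACS then separated cells into low and high (top ~1%) gates by anti-HA (expression) and streptavidin (reagent binding) fluorescence. Genes were colony-PCR amplified, MiSeq 2 × 250 sequenced and CDR-length filtered. A clone's polyreactivity label is that of its gate of origin.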
row,Sequence,polyreactivity (PSR sort gate)
1,QVQLVESGGGLVQAGGSLRLSCAASGSTFAVNVMGWYRQAPGKERELVATITYRDGRTYYADSVKGRFTISRDNAKNTVYLQMNSLKPEDTAVYYCAADDEYKQEAEMDSWGQGTLVTVSS,low polyreactivity
2,QVQLVESGGGLVQAGGSLRLSCAASGSTFAVYAMGWYRQAPGKERELVASITDGGASTYYADSVKGRFTISRDNAKNTVYLQMNSLKPEDTAVYYCAADTYPTTSEVDYWGQGTQVTVSS,low polyreactivity
3,QVQLVESGGGLVQAGGSLRLSCAASGSTFAVYSMGWYTQAPGKERELVADSSYSGGSTYYADSVKGRFTISRDNAKNTVYLQMNSLIPEDTAVYYCAADWYDWLSTYDDWGQGTQVTVSS,low polyreactivity
4,QVQLVESGGGLVQAGGSLRLSCAASGSTFAVYTMGWYRQAPGKEREMSTSYADSVKGRFTISRDNAKNTVYLQMTCLKPEDTAVYYCNRDFYEFDSNSYRFDYWGQGTQVTVSS,low polyreactivity
5,QVQLVESGGGLVQAGGSLRLSCAASGSTFAYNAMGWYRQAPGKERELVAAISKGGGSTYYADSVKGRFTISRDNAKNTVYLQMNSLKPEDTAVYYCNAYYRSPRGYNYWGQGTQVTVSS,high polyreactivity
6,QVQLVESGGGLVQAGGSLRLSCAASGSTFAYNAMGWYRQAPGKERELVAAISWSGGTTYYADSVKGRFTISRDNAKNTVYLQMNSLKPEDTAVYYCAADVYLNRRQRMYYWGQGTQVTVSS,high polyreactivity
7,QVQLVESGGGLVQAGGSLRLSCAASGSTFAYYAMGWYRQAPGKERELVAAITRSTGRTYYADSVKGRFTISRDNAKNTVYLQMNSLKPEDTAVYYCAKTYGYRQPGDYWGQGTLVTVSS,high polyreactivity
8,QVQLVESGGGLVQAGGSLRLSCAASGSTFAYYAMGWYRQAPGKERELVAASSVSGGRTYYADSVQGRFTISRDNAKNTVYLQMNSLKPEDTAVYYCAARLWRDYYWGQGTQVTVSS,high polyreactivity
9,QVQLVESGGGLVQAGGSLRLSCAASGSTFAYYAMGWYRQAPGKERELVAVISVRGGSTYYADSVKGRFTISRDYAKNTVYLQMNSLKPEDTAVYYCAADTFAGYYYWGQGTQVTVSS,high polyreactivity
10,QVQLVESGGGLVQAGGSLRLSCAASGSTFAYYAMGWYRQAPGKERELVAVISVSGDGTSTYYADSVKGRFTISRDNAKNTVYLQMNSLKPEDSAVYYCAAEQVLVGGHTYSLTYDYWGQGTQVTVSS,low polyreactivity
11,QVQLVESGGGLVQAGGSLRLSCAASGSTFAYYAMGWYRQAPGKEREWVAGISGSGGSTYYADSVKGRFTISRDYAKNTVYLHMNSLKPEDTAVYYCAVVQRSKRTYPWYDYWGQGSQVTVSS,low polyreactivity
12,QVQLVESGGGLVQAGGSLRLSCAASGSTFAYYTMGWYRQAPGKERELVAAISSRGGSTYYADSVKGRFTISRDNAKNTVYLQMNSLKPEDTAVYYCAKSPRVAHYTSAYDYWGQGTQVTVSS,high polyreactivity
13,QVQLVESGGGLVQAGGSLRLSCAASGSTFAYYVMGWYRQAPGKERELVAAISRGGRTYYADSVKGSFTISRDNAKNTVYLQMNSLKPEDTSVYYCNKVYVVYSRSKGFYYTYLKYEYWGQGTQVTVSS,low polyreactivity
14,QVQLVESGGGLVQAGGSLRLSCAASGSTFAYYVMGWYRQAPGKERELVAAITSSGGRTYYADSVKGRFTISRDNAKNTVYLQMNSLKPEDTAVYYWAKVSQRRVDNSDYDYWGQGTQVTVSS,high polyreactivity
15,QVQLVESGGGLVQAGGSLRLSCAASGSTFCENDMGWYRQAPGKERELVAAISWTGGRTYYADSVKGRFTISRDNAKNTVYLQMNSLKAEDTAVYYFAAEWEYYGFDYWGQGTQVTVSS,low polyreactivity
16,QVQLVESGGGLVQAGGSLRLSCAASGSTFCYYDMGWYRQAPGKERELVATISSGGGTNYAASVKGRFTISRDNAKNTVYLQMNSLKPEDTAVYYCAAQYVIRITFYATYWEDYWGQGTQVTVSS,low polyreactivity
17,QVQLVESGGGLVQAGGSLRLSCAASGSTFDANAMGWYRQEPGKERELVATISDGGSTNYADSVKGRFTISRDNAKNTVYLQMNSLKPEDTAVYYCAADFSPWGGWYMSLDYWGQGTQVTVSS,low polyreactivity
18,QVQLVESGGGLVQAGGSLRLSCAASGSTFDANDMGWYRQAPGKERELVAAITIGGGSTYYADSVKGRFTISRDNAKNTVYLQMNSLKPEDTAVYYCAKDDHTGVHTYPVDYWGQGTQVTVSS,low polyreactivity
19,QVQLVESGGGLVQAGGSLRLSCAASGSTFDDYAMGWYRQAPGKERELVAAISSAGTTYYADSVKGRFTISRDNAKNTVYLQMNSLKPEDTAVYYCNTVLYPVWYVNFSLRYRYDYYWGQGTQVTVSS,high polyreactivity
20,QVQLVESGGGLVQAGGSLRLSCAASGSTFDDYTMGWYRQAPGKERELLAAISSDSSTNYADSVKGRFTISRDNAKNTVYLQMNSLKPEDTAVYYCATRSRTTKIVRWPGMYYWGQGTQVTVSS,high polyreactivity
21,QVQLVESGGGLVQAGGSLRLSCAASGSTFDGNAMGWYRPAPGKERELVAAITWRDGSTSYADSVKGRFTISRDNAKNTVYLQMNSLKPEDTAVYYCNADPGYLDEEYWGQGTQVTVSS,low polyreactivity

row,Sequence,polyreactivity (PSR sort gate)
1,QVQLVESGGGLVQAGGSLRLSCAASGSTFDGNAMGWYRQAPGKERELVAAITSGGSTNYADSVKGRFTILRDNAKNTVYLQMNSLKPEDTAVYYCAAGWLYARWHSYVGYYYWGQGTQVTVSS,low polyreactivity
2,QVQLVESGGGLVQAGGSLRLSCAASGSTFDINAMGWYRQAPGKERHLVAAITYDTTTTYYADSVKGRFTISRDNAKNTVYLLMNSLKPEDTAVYYCAVEGLLGDTTYVQGYPYWYNYWGQGTQVTVSS,low polyreactivity
3,QVQLVESGGGLVQAGGSLRLSCAASGSTFDIYAMGWYRQAPGKERELVAAITGSSGSTYYADSVKGRFTISRDNAKNTVYLQMNSLKPEDTAVYYCAADIVRVSTVPSLVYSYYWGQGTQVTVSS,low polyreactivity
4,QVQLVESGGGLVQAGGSLRLSCAASGSTFDIYVMGWYRQAPGKESELVAAISRVGNTSYADSVKGRFTISRDNAKNTVNLQMNSLKPEDTAVYYCAADAPSWYDRQYDYWGQCTQVTVSS,low polyreactivity
5,QVQLVESGGGLVQAGGSLRLSCAASGSTFDPKAMGWYRQAPGKERELVAAISYTGGRTYYADSVKGRFTISRDNAKNTVYLQMNSLKPEDTAVYYCAVLVVGSTTQDEPYFSGVEHDYWGQGTQVTVSS,low polyreactivity
6,QVQLVESGGGLVQAGGSLRLSCAASGSTFDPYAMGWYRQAPGKERELVAGISASGGSTYADSVKGRFTISRDNAKNTVYLQMNSLKPEDTACYYCAADTYLIRGPPDEEYWGQGTQVTVSS,low polyreactivity
7,QVQLVESGGGLVQAGGSLRLSCAASGSTFDQYGMGWYRQAPGKDRELVAAITSVGGTNYADSVKGRFTISRDNAKKTVYLQMNSLKPEDTAVYYCARRYPKNHKAPGRMDYWGQGTQVTVSS,low polyreactivity
8,QVQLVESGGGLVQAGGSLRLSCAASGSTFDRNVMGWYRQAPGKERELVAAISRVSSTNYADSVKGRFTISRDNAKNTVYLQMNSLKPEDTAVYYCAVDRAGSIMNYWGQGTQVTVSS,low polyreactivity
9,QVQLVESGGGLVQAGGSLRLSCAASGSTFDRYAMAWYRQAPGKERELVAAISKNGGRTYYADSVKGRFTISRDNAKNTVYLQMNSLKPEDTAVYYCAKDIIKYDYDYWGQGTQVTVSS,low polyreactivity
10,QVQLVESGGGLVQAGGSLRLSCAASGSTFDRYAMGWYRQAPGKERELVAAISCSGGRTYYADSVKGRFTISRDNEKNTVYLQMNSLKPEDTAVYYCATVSRSSLAYIKYDYWGQGTQVTVSA,high polyreactivity
11,QVQLVESGGGLVQAGGSLRLSCAASGSTFDRYDMVWYRQAPGKETELVAAITRRGGSTYYADSVKGRFTFSRDNAKNTVYLQMNSLQPEDTAVYYCNAKHFAYSVAHPYLRYGYDYWGQGTHVTVSS,low polyreactivity
12,QVQLVESGGGLVQAGGSLRLSCAASGSTFDSNAMGWYRQAPGKERELVAGITIGGSTNYADSVKGRFTISRDNAKNTVFLQMNSLKPEDTAVYYCNVVKYVYIYSYWEYYYWGQGTQVTVSS,low polyreactivity
13,QVQLVESGGGLVQAGGSLRLSCAASGSTFDSYAMGWYRQAPGKEGELVAAITGGGDTNYADSVKGRFTISRDNAKNTVYLQMNSLKPEDTAVYYCAAYQRRGNYQMDLWGQGTQVTVSS,low polyreactivity
14,QVQLVESGGGLVQAGGSLRLSCAASGSTFDSYAMGWYRQAPGKERELVAAITNGGSTYYADSVKGRFTISRDNAKNTVYLQMNSLKPEDTEVYYCATDDYLLDYLYDYWGQGTQVTVSS,low polyreactivity
15,QVQLVESGGGLVQAGGSLRLSCAASGSTFDTYAMGWYRQAPGKERELGAAISWSVDSTYYADSVKGRFTISRDNAKNTVYLQMNSLKPEDTAVYYCATVGYGYDYWGQGTQVTVSS,high polyreactivity
16,QVQLVESGGGLVQAGGSLRLSCAASGSTFDTYAMGWYRQAPGKERELVAAISYRGGNTYYADSVKGRFTISRDNAKNTVYLQMNSLKPEDTAVYYCAASYFDPASIPVAFNYWGQGTQVTVSS,low polyreactivity
17,QVQLVESGGGLVQAGGSLRLSCAASGSTFDVNAMGSYRQAPGKERELVAAISWNSGSTYFADSVKGRFTISRDNAKNTVYLQMNRLKPEDTAVYYCAATYGTGRRSKYGYWGQGTQVTVSS,high polyreactivity
18,QVQLVESGGGLVQAGGSLRLSCAASGSTFDVNAMGWYRQAPGKERELVAAITQSGGSTFYADSVKGRFTISRDNAKNTVYLQMNSLKPEDTAVYYWGQGTQVTVSS,low polyreactivity
19,QVQLVESGGGLVQAGGSLRLSCAASGSTFDVYAMGWYRQAPGKERELVATISTSGGDTYYADSVKGRFTISRDNAKNTVYLQMNSLNPEDTAVYYCNVSASYYSPDPKVLVRYDYWGQGTQVTVSS,low polyreactivity
20,QVQLVESGGGLVQAGGSLRLSCAASGSTFDVYAMGWYRQAPGKERELVAVINTSGTRTYYADSVKGRFTISRDNAKNTVYLQMNSLKPEDTAVYYCNAGGHLEMNYWGLGTQVTVSS,low polyreactivity
